# Assay results reported in patent publication US8242083B2, “Kinase substrates” (PerkinElmer Health Sciences, Inc., priority 2008, dated 2012).
# How the values were obtained:
# Format in all cases: biochemical
# Eph4A tyrosine kinase = Eph4A tyrosine kinase (Homo sapiens, UniProt P54764); test: Stability of TR-FRET signal at 665 nm in kinase assay; details: for Average Signal at 665 nm: Eph4A 2 nM, 50 nM labeled peptide or 200 nM labeled co-polymer, 50 micromolar ATP
# Procedure: (§1) TR-FRET kinase assays are performed under standardized conditions: various individual kinases are incubated with 50 nM of kinase substrate BRB1 labeled with the TR-FRET acceptor dye ULight (PerkinElmer) and 200 micromolar ATP in 10 μL of kinase assay buffer (50 mM HEPES pH7.5, 10 mM MgCl2, 3 mM MnCl2, 1 mM EGTA, 2 mM DTT and 0.01% Tween-20) for 2 hours at room temperature. Reactions are stopped with EDTA, and anti-phospho-tyrosine antibodies (clone PT66) labeled with the TR-FRET europium chelate donor dye are added to a final concentration of 2 nM in a final volume of 20 μL. The TR-FRET signal emitted at 665 nm is read one hour after the addition of antibodies using a TR-FRET plate reader such as the Envision® Multilabel Plate reader (PerkinElmer). The emitted signal at 665 nm is proportional to the extent of peptide phosphorylation, Control reactions indicative of background are performed excluding ATP from the reaction.
# An assay comparing the stability of the random co-polymers poly-EAY, poly-EY and peptide BRB1 (SEQ ID No.3) is performed in 384-well format. Assay conditions are similar to those used in Example 1. The Eph4A tyrosine kinase is assayed at 2 nM with 50 nM of labeled peptide of SEQ ID No. 3, 200 nM labeled poly-EY or 200 nM poly-EAY and 50 micromolar ATP in 10 μL of kinase assay buffer. The reaction mixture is incubated for one hour at room temperature. Reactions are stopped with EDTA, and anti-phospho-tyrosine antibodies (clone PT66) labeled with the TR-FRET europium chelate donor dye are added to a concentration of 2 nM in a final volume of 20 μL. The TR-FRET signal emitted at 665 nm is read one, two, four, 18 and 24 hours after the addition of antibodies using a TR-FRET plate reader.
# SRC = SRC (Homo sapiens, UniProt P12931); test: TR-FRET kinase assay, SRC; details: Kinase Concentration 0.5 nM; 50 nM ULight-labeled substrate, 200 micromolar ATP, 2 hours
# Procedure: as §1
# (§2) Assay conditions are identical to those used described for FIG. 1.
# PDGFRβ = PDGFRβ (Homo sapiens, UniProt P09619); test: TR-FRET kinase assay, PDGFRβ; details: Kinase Concentration 0.25 nM; 50 nM ULight-labeled substrate, 200 micromolar ATP, 2 hours
# Sequence of PDGFRβ (P09619 33-1106, species assumed): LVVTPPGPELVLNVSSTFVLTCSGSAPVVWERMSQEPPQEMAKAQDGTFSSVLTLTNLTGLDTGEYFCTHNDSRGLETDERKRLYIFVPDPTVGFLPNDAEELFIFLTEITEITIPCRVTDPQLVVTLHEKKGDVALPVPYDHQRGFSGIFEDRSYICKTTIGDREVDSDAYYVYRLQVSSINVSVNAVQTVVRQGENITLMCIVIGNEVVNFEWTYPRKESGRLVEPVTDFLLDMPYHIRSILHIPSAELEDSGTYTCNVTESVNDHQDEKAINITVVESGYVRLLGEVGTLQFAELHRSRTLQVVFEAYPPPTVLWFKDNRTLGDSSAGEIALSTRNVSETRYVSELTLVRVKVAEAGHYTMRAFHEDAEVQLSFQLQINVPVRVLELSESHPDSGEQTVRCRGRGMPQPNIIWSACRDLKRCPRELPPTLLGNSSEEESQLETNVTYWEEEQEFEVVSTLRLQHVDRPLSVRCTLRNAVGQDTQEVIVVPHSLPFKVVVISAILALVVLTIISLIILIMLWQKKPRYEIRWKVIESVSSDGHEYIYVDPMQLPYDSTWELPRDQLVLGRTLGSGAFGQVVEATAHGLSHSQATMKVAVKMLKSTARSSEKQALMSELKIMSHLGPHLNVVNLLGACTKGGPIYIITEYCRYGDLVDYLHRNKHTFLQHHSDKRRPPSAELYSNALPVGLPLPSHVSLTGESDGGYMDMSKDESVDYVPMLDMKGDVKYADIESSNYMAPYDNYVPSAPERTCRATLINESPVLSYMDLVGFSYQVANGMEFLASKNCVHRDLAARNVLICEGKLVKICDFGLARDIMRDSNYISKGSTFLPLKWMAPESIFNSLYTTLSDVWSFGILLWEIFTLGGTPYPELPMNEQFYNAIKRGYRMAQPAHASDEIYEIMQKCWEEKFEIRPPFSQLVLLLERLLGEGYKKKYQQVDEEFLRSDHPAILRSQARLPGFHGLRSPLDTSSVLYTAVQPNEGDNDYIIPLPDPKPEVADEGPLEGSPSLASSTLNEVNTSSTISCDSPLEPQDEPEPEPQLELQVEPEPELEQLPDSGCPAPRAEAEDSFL
# Procedure: as §1, §2
# EphB2 = target: T1, EphB2 (Homo sapiens, UniProt P29323); test: TR-FRET kinase assay, EphB2; details: Kinase Concentration 0.25 nM; 50 nM ULight-labeled substrate, 200 micromolar ATP, 2 hours
# T1 sequence (P29323 19-1055): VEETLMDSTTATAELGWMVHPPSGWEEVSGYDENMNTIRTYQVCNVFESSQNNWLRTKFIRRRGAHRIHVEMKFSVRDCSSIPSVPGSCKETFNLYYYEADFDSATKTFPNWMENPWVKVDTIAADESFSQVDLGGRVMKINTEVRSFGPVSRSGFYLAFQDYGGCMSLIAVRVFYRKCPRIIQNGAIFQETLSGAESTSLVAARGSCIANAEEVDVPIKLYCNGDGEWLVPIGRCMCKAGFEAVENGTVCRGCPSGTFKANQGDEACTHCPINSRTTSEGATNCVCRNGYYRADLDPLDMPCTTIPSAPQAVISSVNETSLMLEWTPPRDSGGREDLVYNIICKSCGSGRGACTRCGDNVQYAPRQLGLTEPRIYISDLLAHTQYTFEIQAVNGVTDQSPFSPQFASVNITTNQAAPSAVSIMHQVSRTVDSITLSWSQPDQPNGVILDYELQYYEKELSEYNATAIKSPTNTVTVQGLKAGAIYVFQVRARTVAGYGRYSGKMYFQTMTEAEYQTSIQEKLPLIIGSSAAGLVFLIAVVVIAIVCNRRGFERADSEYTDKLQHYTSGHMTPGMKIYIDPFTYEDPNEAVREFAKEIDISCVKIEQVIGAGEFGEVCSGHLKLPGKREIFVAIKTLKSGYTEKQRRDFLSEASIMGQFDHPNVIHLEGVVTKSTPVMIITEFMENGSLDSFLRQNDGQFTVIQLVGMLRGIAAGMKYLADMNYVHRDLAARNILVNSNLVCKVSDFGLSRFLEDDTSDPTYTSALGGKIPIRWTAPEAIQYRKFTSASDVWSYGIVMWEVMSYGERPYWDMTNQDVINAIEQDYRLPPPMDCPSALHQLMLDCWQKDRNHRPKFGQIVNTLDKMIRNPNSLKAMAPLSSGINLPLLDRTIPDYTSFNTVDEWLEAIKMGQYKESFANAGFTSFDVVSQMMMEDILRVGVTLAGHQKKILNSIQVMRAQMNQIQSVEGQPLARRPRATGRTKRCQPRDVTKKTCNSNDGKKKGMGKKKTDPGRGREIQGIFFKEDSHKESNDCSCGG
# Procedure: as §1, §2
# IGF1R = IGF1R (Homo sapiens, UniProt P08069); test: TR-FRET kinase assay, IGF1R; details: Kinase Concentration 0.25 nM; 50 nM ULight-labeled substrate, 200 micromolar ATP, 2 hours
# Procedure: as §1, §2
# ROS = ROS (Homo sapiens, UniProt P08922); test: TR-FRET kinase assay, ROS; details: Kinase Concentration 0.25 nM; 50 nM ULight-labeled substrate, 200 micromolar ATP, 2 hours
# Procedure: as §1, §2
# AXL = AXL (Homo sapiens, UniProt P30530); test: TR-FRET kinase assay, AXL; details: Kinase Concentration 4 nM; 50 nM ULight-labeled substrate, 200 micromolar ATP, 2 hours
# Procedure: as §1, §2
# HCK = HCK (Homo sapiens, UniProt P08631); test: TR-FRET kinase assay, HCK; details: Kinase Concentration 0.25 nM; 50 nM ULight-labeled substrate, 200 micromolar ATP, 2 hours
# Sequence of HCK (P08631 whole entry, species assumed): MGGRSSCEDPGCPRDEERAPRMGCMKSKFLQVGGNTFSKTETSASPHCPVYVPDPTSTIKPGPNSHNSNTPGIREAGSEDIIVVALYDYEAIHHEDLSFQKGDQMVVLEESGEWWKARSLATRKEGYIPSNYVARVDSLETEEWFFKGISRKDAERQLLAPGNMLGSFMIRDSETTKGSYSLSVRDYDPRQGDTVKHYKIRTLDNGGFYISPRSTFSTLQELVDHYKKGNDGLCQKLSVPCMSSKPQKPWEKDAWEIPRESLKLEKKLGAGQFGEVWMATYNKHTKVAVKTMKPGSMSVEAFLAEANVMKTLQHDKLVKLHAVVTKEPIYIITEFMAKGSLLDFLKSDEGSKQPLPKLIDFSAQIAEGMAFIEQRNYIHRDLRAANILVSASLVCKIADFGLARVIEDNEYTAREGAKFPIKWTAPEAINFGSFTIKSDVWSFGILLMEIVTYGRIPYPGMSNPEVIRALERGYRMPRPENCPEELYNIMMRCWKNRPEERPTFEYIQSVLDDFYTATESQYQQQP
# Procedure: as §1, §2
# EGFR = EGFR (Homo sapiens, UniProt P00533); test: TR-FRET kinase assay, EGFR; details: Kinase Concentration 0.5 nM; 50 nM ULight-labeled substrate, 200 micromolar ATP, 2 hours
# Procedure: as §1, §2
# FYN = FYN (Homo sapiens, UniProt P06241); test: TR-FRET kinase assay, FYN; details: Kinase Concentration 0.25 nM; 50 nM ULight-labeled substrate, 200 micromolar ATP, 2 hours
# Sequence of FYN (P06241 whole entry, species assumed): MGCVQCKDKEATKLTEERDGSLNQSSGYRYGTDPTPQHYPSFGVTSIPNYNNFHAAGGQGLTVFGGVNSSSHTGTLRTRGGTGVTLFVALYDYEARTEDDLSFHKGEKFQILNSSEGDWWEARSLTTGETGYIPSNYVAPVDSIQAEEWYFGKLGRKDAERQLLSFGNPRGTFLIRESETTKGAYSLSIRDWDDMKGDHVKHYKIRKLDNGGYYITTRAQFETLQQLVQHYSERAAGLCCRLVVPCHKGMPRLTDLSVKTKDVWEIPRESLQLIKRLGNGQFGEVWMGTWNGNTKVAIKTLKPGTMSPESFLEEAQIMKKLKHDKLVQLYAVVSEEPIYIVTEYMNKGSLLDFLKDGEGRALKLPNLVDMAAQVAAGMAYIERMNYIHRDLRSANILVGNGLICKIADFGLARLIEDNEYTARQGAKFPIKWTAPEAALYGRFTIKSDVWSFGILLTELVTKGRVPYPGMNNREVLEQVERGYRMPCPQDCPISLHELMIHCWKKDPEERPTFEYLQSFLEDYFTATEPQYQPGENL
# Procedure: as §1, §2
# Sequence of Eph4A tyrosine kinase (P54764 20-986): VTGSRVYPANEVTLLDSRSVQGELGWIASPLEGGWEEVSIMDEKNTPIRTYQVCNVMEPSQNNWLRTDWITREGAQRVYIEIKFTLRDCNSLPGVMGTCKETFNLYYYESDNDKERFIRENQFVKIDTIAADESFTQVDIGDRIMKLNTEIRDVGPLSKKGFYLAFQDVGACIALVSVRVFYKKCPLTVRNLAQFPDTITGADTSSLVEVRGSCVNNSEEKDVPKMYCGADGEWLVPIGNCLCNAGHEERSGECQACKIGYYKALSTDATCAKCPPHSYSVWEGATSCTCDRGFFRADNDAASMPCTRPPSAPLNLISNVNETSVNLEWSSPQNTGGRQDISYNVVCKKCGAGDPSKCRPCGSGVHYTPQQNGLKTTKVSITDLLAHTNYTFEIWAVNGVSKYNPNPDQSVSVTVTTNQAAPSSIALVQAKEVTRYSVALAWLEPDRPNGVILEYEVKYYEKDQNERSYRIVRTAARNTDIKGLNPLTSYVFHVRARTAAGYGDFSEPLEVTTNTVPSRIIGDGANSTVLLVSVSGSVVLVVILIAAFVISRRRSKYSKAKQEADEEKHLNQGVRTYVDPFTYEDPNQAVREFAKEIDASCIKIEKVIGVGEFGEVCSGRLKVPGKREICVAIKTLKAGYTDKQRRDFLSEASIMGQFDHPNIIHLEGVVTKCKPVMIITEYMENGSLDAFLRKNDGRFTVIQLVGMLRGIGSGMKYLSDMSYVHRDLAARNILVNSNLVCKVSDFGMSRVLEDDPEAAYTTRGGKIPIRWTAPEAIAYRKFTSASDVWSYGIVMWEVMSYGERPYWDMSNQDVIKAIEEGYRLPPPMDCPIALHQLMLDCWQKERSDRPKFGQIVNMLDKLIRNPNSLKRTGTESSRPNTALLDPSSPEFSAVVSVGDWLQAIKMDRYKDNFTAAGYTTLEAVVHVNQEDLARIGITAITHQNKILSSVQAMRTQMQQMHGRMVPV
sequence,measurement,setting,value
C AYE AYE AYE K EYA EYA EYA K AYA EYE R (CAYEAYEAYEKEYAEYAEYAKAYAEYER; tyrosine kinase substrate peptide) [BRB1],Average Signal at 665 nm,Eph4A tyrosine kinase; Incubation 1 h after addition of antibodies,134156
same,Average Signal at 665 nm,Eph4A tyrosine kinase; Incubation 18 h after addition of antibodies,117226
same,% Decrease of average signal at 665 nm,Eph4A tyrosine kinase; Incubation 18 h versus 1 h,12.6%
same,Average Signal at 665 nm,Eph4A tyrosine kinase; Incubation 24 h after addition of antibodies,115534
same,% Decrease of average signal at 665 nm,Eph4A tyrosine kinase; Incubation 24 h versus 1 h,13.9%
same,% Decrease of average signal at 665 nm,"Eph4A tyrosine kinase; Incubation 24 h versus 1 h, listed as SEQ ID No. 3",14%
same,Stability of specific TR-FRET signal at 665 nm over time,Eph4A tyrosine kinase; after addition of europium-labeled anti-phospho-tyrosine antibody,more stable
same,Signal to Noise ratio with BRB1 Peptide,SRC,31.7
same,Signal to Noise ratio with BRB1 Peptide,PDGFRβ,4.7
same,Signal to Noise ratio with BRB1 Peptide,EphB2,28.8
same,Signal to Noise ratio with BRB1 Peptide,IGF1R,25.1
same,Signal to Noise ratio with BRB1 Peptide,ROS,24.5
same,Signal to Noise ratio with BRB1 Peptide,AXL,1.8
same,Signal to Noise ratio with BRB1 Peptide,HCK,29.7
same,Signal to Noise ratio with BRB1 Peptide,EGFR,10.0
same,Signal to Noise ratio with BRB1 Peptide,FYN,25.9
